Literature values in patent publication US20040241754A1, “Modulating neuronal plasticity” (The Salk Institute for Biological Studies, priority 2003, published 2004).

Columns and labels:
EphA2 = EphA2 (Homo sapiens, UniProt P29317); settings: read-out: Kd for binding to EphA2; cited from earlier work
EphB4 = target: T1, EphB4 (Homo sapiens, UniProt P54760); settings: read-out: Kd for binding to EphB4; cited from earlier work
T1 sequence (P54760 16-987): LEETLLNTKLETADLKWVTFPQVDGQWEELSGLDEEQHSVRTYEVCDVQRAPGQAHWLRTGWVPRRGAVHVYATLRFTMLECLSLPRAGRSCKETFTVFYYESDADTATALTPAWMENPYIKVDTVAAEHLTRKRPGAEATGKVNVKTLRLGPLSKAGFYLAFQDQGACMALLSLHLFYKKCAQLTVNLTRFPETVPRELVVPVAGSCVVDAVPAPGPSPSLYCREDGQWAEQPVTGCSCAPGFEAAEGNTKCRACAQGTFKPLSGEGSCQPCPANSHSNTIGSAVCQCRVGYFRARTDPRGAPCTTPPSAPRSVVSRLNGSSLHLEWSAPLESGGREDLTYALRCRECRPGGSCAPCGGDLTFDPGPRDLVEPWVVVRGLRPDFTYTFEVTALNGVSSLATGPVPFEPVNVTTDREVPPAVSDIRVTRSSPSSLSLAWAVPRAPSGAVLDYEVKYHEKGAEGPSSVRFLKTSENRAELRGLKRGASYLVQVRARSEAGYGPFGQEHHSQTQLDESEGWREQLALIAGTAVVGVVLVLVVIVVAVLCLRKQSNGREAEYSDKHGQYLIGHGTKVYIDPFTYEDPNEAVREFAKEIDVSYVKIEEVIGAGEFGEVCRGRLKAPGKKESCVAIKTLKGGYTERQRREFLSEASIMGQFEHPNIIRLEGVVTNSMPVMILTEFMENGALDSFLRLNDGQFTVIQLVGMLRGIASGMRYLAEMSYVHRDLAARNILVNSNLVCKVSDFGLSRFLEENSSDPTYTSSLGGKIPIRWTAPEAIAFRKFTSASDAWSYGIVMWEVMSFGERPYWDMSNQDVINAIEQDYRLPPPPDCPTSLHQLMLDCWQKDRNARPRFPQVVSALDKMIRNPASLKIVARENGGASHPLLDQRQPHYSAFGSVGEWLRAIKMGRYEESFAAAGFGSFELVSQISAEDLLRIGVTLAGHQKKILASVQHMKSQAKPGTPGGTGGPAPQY

EphA2, sequence (P29317 24-976): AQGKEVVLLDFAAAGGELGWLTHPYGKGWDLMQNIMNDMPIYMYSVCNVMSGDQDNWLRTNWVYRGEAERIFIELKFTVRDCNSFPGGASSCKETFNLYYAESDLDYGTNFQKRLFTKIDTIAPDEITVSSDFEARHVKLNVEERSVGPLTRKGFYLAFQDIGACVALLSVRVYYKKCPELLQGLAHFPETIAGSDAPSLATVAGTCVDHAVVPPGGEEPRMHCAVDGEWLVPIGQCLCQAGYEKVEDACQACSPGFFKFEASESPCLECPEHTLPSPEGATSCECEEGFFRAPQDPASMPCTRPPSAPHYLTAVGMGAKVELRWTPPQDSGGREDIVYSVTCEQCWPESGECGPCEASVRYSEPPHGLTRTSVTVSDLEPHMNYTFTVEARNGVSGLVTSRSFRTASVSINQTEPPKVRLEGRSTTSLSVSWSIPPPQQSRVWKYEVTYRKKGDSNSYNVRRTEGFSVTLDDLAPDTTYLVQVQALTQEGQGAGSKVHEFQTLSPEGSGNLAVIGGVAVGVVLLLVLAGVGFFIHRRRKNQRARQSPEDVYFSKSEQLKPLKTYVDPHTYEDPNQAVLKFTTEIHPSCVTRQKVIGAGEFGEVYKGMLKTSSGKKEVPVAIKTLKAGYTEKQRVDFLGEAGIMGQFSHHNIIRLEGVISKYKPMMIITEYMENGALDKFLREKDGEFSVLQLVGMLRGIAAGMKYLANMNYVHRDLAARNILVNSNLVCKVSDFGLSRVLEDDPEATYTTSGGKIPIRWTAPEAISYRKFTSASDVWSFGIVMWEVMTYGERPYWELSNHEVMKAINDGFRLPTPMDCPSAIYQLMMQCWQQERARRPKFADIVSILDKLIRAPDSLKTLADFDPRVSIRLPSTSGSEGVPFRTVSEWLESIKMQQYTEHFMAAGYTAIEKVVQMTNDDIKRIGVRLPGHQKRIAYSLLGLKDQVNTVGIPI

B1: ephrin-A1: a 25 kDa, 205 amino acid glycoprotein; ephrin ligand (protein, UniProt P20827 1-205, looked up)
chain: MEFLWAPLLGLCCSLAAADRHTVFWNSSNPKFRNEDYTIHVQLNDYVDIICPHYEDHSVADAAMEQYILYLVEHEEYQLCQPQSKDQVRWQCNRPSAKHGPEKLSEKFQRFTPFTLGKEFKEGHSYYYISKPIHQHEDRCLRLKVTVSGKITHSPQAHDNPQEKRLAADDPEVRVLHSIGHSAAPRLFPLAWTVLLLPLLLLQTP
modifications: full-length
notes: a 25 kDa, 205 amino acid glycoprotein; ephrin ligand
- Kd (EphA2): 25 nM

B2: ephrin-B2: a 38-42 kDa, 333 amino acid glycoprotein; ephrin ligand (protein, UniProt P52799 1-333, looked up)
chain: MAVRRDSVWKYCWGVLMVLCRTAISKSIVLEPIYWNSSNSKFLPGQGLVLYPQIGDKLDIICPKVDSKTVGQYEYYKVYMVDKDQADRCTIKKENTPLLNCAKPDQDIKFTIKFQEFSPNLWGLEFQKNKDYYIISTSNGSLEGLDNQEGGVCQTRAMKILMKVGQDASSAGSTRNKDPTRRPELEAGTNGRSSTTSPFVKPNPGSSTDGNSAGHSGNNILGSEVALFAGIASGCIIFIVIIITLVVLLLKYRRRHRKHSPQHTTTLSLSTLATPKRSGNNNGSEPSDIIIPLRTADSVFCPHYEKVSGDYGHPVYIVQEMPPQSPANIYYKV
modifications: full-length
notes: a 38-42 kDa, 333 amino acid glycoprotein; ephrin ligand
- Kd (EphB4): 0.535 nM
